US20250043302A1, “MUTATED HYDROXYPHENYLPYRUVATE DIOXYGENASE POLYPEPTIDE, AND CODING GENE AND USE THEREOF” (BEIJING DABEINONG BIOTECHNOLOGY CO., LTD., priority 2021, published 2025)

How the values were obtained:
Assay type in all cases: in vivo
[1] = system: Arabidopsis thaliana T1 plants; assay: Topramezone tolerance of transgenic Arabidopsis thaliana T1 plants (spray, bleached leaf area grade, damage score); details: 7 DAT, Table 4; for Classification and statistics of the grade of pesticide damage: Grade 0 / Classification and statistics of the grade of pesticide damage: Grade 1 / Classification and statistics of the grade of pesticide damage: Grade 2 / Classification and statistics of the grade of pesticide damage: Grade 3: number of plants; for Scores: pesticide damage score 0-100
Summary of the method: (§1)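 Read-out: per-plant damage grade 0–3 from proportion of bleached leaf area at 7 DAT (1 <50%, 2 >50%, 3 100%). Plants were T1 transformants, glufosinate-selected, plus wild-type CK, sprayed 18 days post-sowing. Rates: topramezone 25–200, isoxaflutole 35–280, mesotrione 52.5–420 g ai/ha.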

[2] = system: Arabidopsis thaliana T1 plants; assay: Isoxaflutole tolerance of transgenic Arabidopsis thaliana T1 plants (spray, bleached leaf area grade, damage score); design: Scores (pesticide damage): scale not given here; details: spray, Arabidopsis thaliana T1 plants; for Classification and statistics of the grade of pesticide damage: Grade 0 (number of plants) / Classification and statistics of the grade of pesticide damage: Grade 1 (number of plants) / Classification and statistics of the grade of pesticide damage: Grade 2 (number of plants) / Classification and statistics of the grade of pesticide damage: Grade 3 (number of plants): 16 plants
Summary of the method: as §1

[3] = system: Arabidopsis thaliana T1 plants; assay: Mesotrione tolerance of transgenic Arabidopsis thaliana T1 plants (spray, bleached leaf area grade, damage score); design: Scores: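 damage score 0-100 computed as Σ(N×S)/(T×M)×100 over grades 0-3 with higher meaning more damage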; details: Arabidopsis thaliana T1 plants; for Grade 0 (classification and statistics of the grade of pesticide damage; number of plants) / Grade 1 (classification and statistics of the grade of pesticide damage; number of plants) / Grade 2 (classification and statistics of the grade of pesticide damage; number of plants) / Grade 3 (classification and statistics of the grade of pesticide damage; number of plants): 16 plants
Summary of the method: as §1

[4] = isoxaflutole 35 g ai/ha (0.5x field concentration)
[5] = isoxaflutole 70 g ai/ha (1x field concentration)

B1: SbHPPD-02: nucleotide sequence encoding wild-type Sorghum bicolor HPPD; vector DBN11758 (nucleic acid)
DNA: ATGCCGCCCACTCCAACAACTGCTGCTGCGACGGGAGCAGCTGTCGCCGCTGCTTCTGCTGAGCAGGCTGCCTTCAGGCTCGTCGGGCACAGAAATTTTGTTCGTGTAAATCCAAGGAGTGATAGGTTCCACACCTTGGCTTTTCACCACGTGGAGTTGTGGTGTGCTGATGCAGCCTCGGCAGCGGGGCGCTTCTCGTTTGGTCTCGGTGCTCCGCTCGCCGCAAGATCTGATCTTAGCACTGGAAACACAGCGCATGCCTCCCTGCTCCTGCGCTCTGGCGCGCTGGCGTTCCTCTTCACGGCGCCATATGCTCACGGCGCCGACGCCGCCACCGCGTCATTGCCGTCTTTTAGTGCAGCCGAAGCAAGAAGATTTGCAGCAGACCACGGCCTCGCCGTAAGGGCCGTGGCCTTACGTGTCGCCGATGCCGAAGATGCTTTCCGCGCCTCTGTAGCAGCTGGAGCAAGGCCAGCATTTGAACCTGTTGAATTGGGGTTAGGATTCCGTCTTGCAGAAGTTGAGCTTTATGGCGACGTTGTTTTGAGATACGTTTCATATCCTGATGACGCTGACGCTAGCTTCTTGCCTGGTTTTGTGGGGGTGACATCACCTGGGGCAGCAGATTATGGTCTCAGGCGGTTTGATCATATTGTTGGAAACGTTCCTGAACTCGCGCCGGCGGCAGCCTACTTCGCCGGTTTCACTGGGTTTCATGAATTTGCTGAATTCACAGCCGAGGATGTCGGCACCACCGAGAGTGGACTGAACTCCATGGTGCTGGCCAACAATGCAGAGAATGTCCTTCTTCCCTTGAATGAACCAGTTCATGGAACAAAAAGGCGTTCCCAAATACAAACATACCTCGACCATCATGGTGGACCAGGCGTTCAGCATATGGCTCTCGCTAGTGACGATGTTCTACGAACCCTGCGAGAGATGCAGGCGCGGTCTGCAATGGGAGGATTTGAGTTCATGGCACCTCCTGCCCCTGAATATTATGATGGTGTTCGGAGAAGGGCAGGTGATGTGCTAACTGAAGCTCAAATCAAGGAGTGCCAGGAGCTTGGCGTGCTGGTCGATCGGGATGATCAAGGTGTGCTTCTGCAGATTTTTACTAAACCAGTGGGTGACCGCCCCACGCTGTTCCTAGAGATCATCCAGAGAATAGGGTGCATGGAGAAGGACGAAAAAGGACAAGAGTACCAGAAGGGAGGTTGTGGCGGCTTTGGAAAAGGGAACTTCTCCCAATTATTCAAGTCAATTGAAGACTATGAAAAGAGTTTGGAGGCTAAGCAAGCTGCAGCCGCCCAGGGCAGCTGA
modifications: SbHPPD-02 Nucleotide Sequence
notes: vector DBN11758
With B1 the “Classification and statistics of the grade of pesticide damage: Grade 0” value ([1]; topramezone 25 g ai/ha (1×)) was 0, the “Classification and statistics of the grade of pesticide damage: Grade 1” value ([1]; topramezone 25 g ai/ha (1×)) was 0 and the “Classification and statistics of the grade of pesticide damage: Grade 2” value ([1]; topramezone 25 g ai/ha (1×)) was 0. The “Classification and statistics of the grade of pesticide damage: Grade 3” value ([1]; topramezone 25 g ai/ha (1×)) was 16, the “Classification and statistics of the grade of pesticide damage: Grade 0” value ([1]; topramezone 100 g ai/ha (4×)) was 0 and the “Classification and statistics of the grade of pesticide damage: Grade 1” value ([1]; topramezone 100 g ai/ha (4×)) was 0. For the same molecule, the “Classification and statistics of the grade of pesticide damage: Grade 2” value ([1]; topramezone 100 g ai/ha (4×)) was 0, the “Classification and statistics of the grade of pesticide damage: Grade 3” value ([1]; topramezone 100 g ai/ha (4×)) was 16 and the Scores ([1]; topramezone 25 g ai/ha (1×)) was 100. For the same molecule, the Scores ([1]; topramezone 100 g ai/ha (4×)) was 100, the Resistance evaluation ([1]; topramezone 25 g ai/ha (1×)) was “non-resistant (non-resistant plants (scores 68-100))” and the Resistance evaluation ([1]; topramezone 100 g ai/ha (4×)) was “non-resistant (non-resistant plants (scores 68-100))”. The Resistance evaluation [2, 4] was “Non-resistant”, the “Scores (pesticide damage)” value [2, 4] was 100 and the “Classification and statistics of the grade of pesticide damage: Grade 0 (number of plants)” value [2, 4] was 0. For the same molecule, the “Classification and statistics of the grade of pesticide damage: Grade 1 (number of plants)” value [2, 4] was 0, the “Classification and statistics of the grade of pesticide damage: Grade 2 (number of plants)” value [2, 4] was 0 and the “Classification and statistics of the grade of pesticide damage: Grade 3 (number of plants)” value [2, 4] was 16. For the same molecule, the Resistance evaluation [2, 5] was “Non-resistant”, the “Scores (pesticide damage)” value [2, 5] was 100 and the “Classification and statistics of the grade of pesticide damage: Grade 0 (number of plants)” value [2, 5] was 0. The “Classification and statistics of the grade of pesticide damage: Grade 1 (number of plants)” value [2, 5] was 0, the “Classification and statistics of the grade of pesticide damage: Grade 2 (number of plants)” value [2, 5] was 0 and the “Classification and statistics of the grade of pesticide damage: Grade 3 (number of plants)” value [2, 5] was 16. The Resistance evaluation ([3]; mesotrione 52.5 g ai/ha) was “Non-resistant”, the Scores ([3]; mesotrione 52.5 g ai/ha) was 100 and the “Grade 0 (classification and statistics of the grade of pesticide damage; number of plants)” value ([3]; mesotrione 52.5 g ai/ha) was 0. The “Grade 1 (classification and statistics of the grade of pesticide damage; number of plants)” value ([3]; mesotrione 52.5 g ai/ha) was 0, the “Grade 2 (classification and statistics of the grade of pesticide damage; number of plants)” value ([3]; mesotrione 52.5 g ai/ha) was 0 and the “Grade 3 (classification and statistics of the grade of pesticide damage; number of plants)” value ([3]; mesotrione 52.5 g ai/ha) was 16. For the same molecule, the Resistance evaluation ([3]; mesotrione 105 g ai/ha) was “Non-resistant”, the Scores ([3]; mesotrione 105 g ai/ha) was 100 and the “Grade 0 (classification and statistics of the grade of pesticide damage; number of plants)” value ([3]; mesotrione 105 g ai/ha) was 0. The “Grade 1 (classification and statistics of the grade of pesticide damage; number of plants)” value ([3]; mesotrione 105 g ai/ha) was 0, the “Grade 2 (classification and statistics of the grade of pesticide damage; number of plants)” value ([3]; mesotrione 105 g ai/ha) was 0 and the “Grade 3 (classification and statistics of the grade of pesticide damage; number of plants)” value ([3]; mesotrione 105 g ai/ha) was 16.
